Assay results published in US20240101668A1 (WUGEN, published 2024).
Positions count from the first letter of the chain named.

T1: huCLL1-K244-Avi-Tev-His (human, UniProt Q5QGZ9 65-265)
T1 construct: extracellular domain
T1 sequence (looked up): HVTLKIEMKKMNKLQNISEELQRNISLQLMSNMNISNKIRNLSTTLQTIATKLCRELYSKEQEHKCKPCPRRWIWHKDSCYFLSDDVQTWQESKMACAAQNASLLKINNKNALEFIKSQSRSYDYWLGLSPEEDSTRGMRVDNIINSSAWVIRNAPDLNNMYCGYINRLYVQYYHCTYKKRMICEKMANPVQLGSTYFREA

T2: huCLL1-Q244-Avi-Tev-His (human, UniProt Q5QGZ9 65-265)
T2 construct: extracellular domain; also called CLL-1 K244Q
T2 sequence (looked up): T1 sequence (looked up) with K180Q

B1: Polypeptide No. 283 (scFv, V domains shown)
VH: QVQLVQSGAEVKKPGASVKVSCKASGYTFTSYYMDWVRQAPGQGLEWMGRINPSSGSTTYVQKFQGRVTMTRDTSTSTVYMELSSLRSEDTAVYYCARTPSGSYSDFDYWGQGTLVTVSS
VL: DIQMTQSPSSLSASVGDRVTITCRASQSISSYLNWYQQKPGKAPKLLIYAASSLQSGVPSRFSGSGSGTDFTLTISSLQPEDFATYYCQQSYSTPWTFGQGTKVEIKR
notes: scFv
B2: Polypeptide No. 293 (scFv, V domains shown)
VH: QVQLVQSGAEVKKPGSSVKVSCKASGYMFTTPYIHWVRQAPGQGLEWMGVINPISGTTTYAQKFQGRVTITADESTSTAYMELSSLRSEDTAVYYCANDRHYDFWSGYYKEEWEYFQHWGQGTLVTVSS
VL: not shown
notes: scFv
B3: Polypeptide No. 52 (scFv, V domains shown)
VH: QVQLVQSGAEVKKPGASVKVSCKASGDTFTRHYVHWVRQAPGQGLEWMGIINPRGGTHYAQKFQGRVTMTRDTSTSTVYMELSSLRSEDTAVYYCARRDCSGGSCYSDLDYWGQGTLVTVSS
VL: DIQMTQSPSSLSASVGDRVTITCQASQDIHNYLNWYQQKPGKAPKLLIYQASSLESGVPSRFSGSGSGTDFTLTISSLQPEDFATYYCQQANSFPLTFGGGTKLEIKR
notes: scFv
B4: Polypeptide No. 294 (scFv, V domains shown)
VH: QVQLVQSGAEVKKPGASVKVSCKASGYTFTSNNMHWVRQAPGQGLEWMGWINLNSGGTNYAQKFQGRVTMTRDTSTSTVYMELSSLRSEDTAVYYCAKAIDYYYMDVWGKGTTVTVSS
VL: B3 VL with Q24R, D28G, H30R, Y32D, N34G, S56N, N92Y, F94L, L96W, G100Q
notes: scFv
B5: Polypeptide No. 51 (scFv, V domains shown)
VH: QVQLVQSGAEVKKPGSSVKVSCKASGGTFSSYAISWVRQAPGQGLEWMGEIIPFFGTANYAQKFQGRVTITADESTSTAYMELSSLRSEDTAVYYCARAEYGGDLDYWGQGTLVTVSS
VL: DIQMTQSPSSLSASVGDRVTITCQASQDISNLLNWYQQKPGKAPKLLIYAASTLQSGVPSRFSGSGSGTDFTLTISSLQPEDFATYYCQQSYNTPWTFGPGTKVDIKR
notes: scFv
B6: Polypeptide No. 61 (scFv, V domains shown)
VH: QVQLVQSGAEVKKPGASVKVSCKASGYTFTNYYMHWVRQAPGQGLEWMGIINPSGGSTSYAQKFQGRVTMTRDTSTSTVYMELSSLRSEDTAVYYCARAEWDILTGYYIDYWGQGTLVTVSS
VL: B3 VL with H30S, Q50G, E55Q, A91H, F94Y, L96W, G100Q, L104V
notes: scFv
B7: Polypeptide No. 288 (scFv, V domains shown)
VH: QVQLVQSGAEVKKPGASVKVSCKASGYTFTTYDINWVRQAPGQGLEWMGWMNPSSGNSGFAQQFQGRVTMTRDTSTSTVYMELSSLRSEDTAVYYCAREDYYDSSGYYNWGQGTLVTVSS
VL: B5 VL with Q24R, D28G, L32N, A50K, Q55E, N93S, W96I, P100Q, D105E
notes: scFv
B8: Polypeptide No. 87 (scFv, V domains shown)
VH: QVQLVQSGAEVKKPGASVKVSCKASGYSFTNYYIHWVRQAPGQGLEWMGWMNPYTGQTGYAQKFQGRVTMTRDTSTSTVYMELSSLRSEDTAVYYCTTDEETMDFHLWGRGTLVTVSS
VL: DIQMTQSPSSLSASVGDRVTITCZASQSISSYLNWYQQKPGKAPKLLIYDASNLETGVPSRFSGSGSGTDFTLTISSLQPEDFATYYCQQANTFPITFGQGTRLEIKR
notes: scFv
B9: Polypeptide No. 50 (scFv, V domains shown)
VH: QVQLVQSGAEVKKPGASVKVSCKASGYTFTDYYMHWVRQAPGQGLEWMGIINPSDGSTTYAQSFQGRVTMTRDTSTSTVYMELSSLRSEDTAVYYCARDELPDSSGWYGYFQHWGQGTLVTVSS
VL: DIQMTQSPSSLSASVGDRVTITCRASQSISSWLAWYQQKPGKAPKLLIYAASSLQSGVPSRFSGSGSGTDFTLTISSLQPEDFATYYCQQSYDIPLTFGGGTKVEIKR
notes: scFv
B10: Polypeptide No. 53 (scFv, V domains shown)
VH: QVQLVQSGAEVKKPGASVKVSCKASGGTFSSYAISWVRQAPGQGLEWMGWINPDSGDASYARKFQGRVTMTRDTSTSTVYMELSSLRSEDTAVYYCATFGEEAFDIWGQGTMVTVSS
VL: B3 VL with Q24R, D28N, H30G, N31S, Y32W, N34A, Q50G, S53I, E55Q
notes: scFv
B11: Polypeptide No. 287 (scFv, V domains shown)
VH: QVQLVQSGAEVKKPGASVKVSCKASGYTFTRHYVHWVRQAPGQGLEWVGIINPSSGSASYAQKFQGRVTMTRDTSTSTVYMELSSLRSEDTAVYYCARDRLRSRFDYWGQGTLVTVSS
VL: B9 VL with W32S, D93T, L96P, G100Q, V104L
notes: scFv
B12: Polypeptide No. 284 (scFv, V domains shown)
VH: QVQLVQSGAEVKKPGASVKVSCKASGYTFTSYYMHWVRQAPGQGLEWMGVINPSGGSTTYAQKFQGRVTMTRDTSTSTVYMELSSLRSEDTAVYYCARVPGVSPGDYGMDVWGQGTTVTVSS
VL: B9 VL with Q27H, S28N, S31T, D93S, I94T, L96P, G100Q, K103R, V104L
notes: scFv
B13: Polypeptide No. 54 (scFv, V domains shown)
VH: QVQLVQSGAEVKKPGASVKVSCKASGGTFSSYAISWVRQAPGQGLEWMGWIDPKNGDTNYAQKFQGRVTMTRDTSTSTVYMELSSLRSEDTAVYYCATEGSHHPYYYYGMDVWGQGTTVTVSS
VL: DIQMTQSPSSLSASVGDRVTITCRASQGIGNWLAWYQQKPGKAPKLLIYEASTLQSGVPSRFSGSGSGTDFTLTISSLQPEDFATYYCHQYNAYPWTFGQGTKVEIKR
notes: scFv
B14: Polypeptide No. 292 (scFv, V domains shown)
VH: QVQLVQSGAEVKKPGASVKVSCKASGYTFTSYGISWVRQAPGQGLEWMGWINPNSGGTNYAQKFQGRVTMTRDTSTSTVYMELSSLRSEDTAVYYCARQGGLRDFDYWGQGTLVTVSS
VL: DIQMTQSPSSLSASVGDRVTITCRASQSISTYVNWYQQKPGKAPKLLIYDTSSLQSGVPSRFSGSGSGTDFTLTISSLQPEDFATYYCQQSFITPPTFGQGTKLEIKR
notes: scFv

Tests used:
[1] = molecular target: T3, huFLT3-T227 stably expressed on Ramos cells (human, UniProt P36888 27-993); experiment: FACS on cells
T3 construct: whole, on cells; also called FLT3 WT
Experimental: (§1) For FLT3, Ramos cells were engineered to stably express either the huFLT3-T227 or huFLT3-M227 variant at >200,000 receptors per cell. Parental, huFLT3-T227, and huFLT3-M227 Ramos cell lines were stained with differing levels of CellTrace Violet Cell Proliferation Kit (ThermoFisher, cat. #C34557) to barcode each cell line. Barcoded Ramos cell lines were fixed with paraformaldehyde and incubated with myc-labeled scFv periplasmic extracts and a secondary anti-myc PE-conjugated monoclonal antibody. Appropriate positive and negative controls were used. Stained cells were analyzed by flow cytometry (CytoFLEX, Beckman Coulter, Inc.) and binding was assessed by change in PE mean fluorescence intensity (MFI) of the barcoded cell populations.

[2] = molecular target: T4, huFLT3-M227 stably expressed on Ramos cells (human, UniProt P36888 27-993); experiment: FACS on cells
T4 construct: whole, on cells; also called FLT3 Mutant
Experimental: as §1

huCLL1-K244-Avi-Tev-His = molecular target: T1, huCLL1-K244-Avi-Tev-His; experiment: BLI
Experimental: (§2) Discovered scFvs were analyzed for binding to huCD33-R69-His or huCD33-G69-Fc recombinant proteins (for anti-CD33 scFvs; for CLL-1 scFvs, huCLL1-K244-Avi-Tev-His or huCLL1-Q244-Avi-Tev-His were used; for FLT3, huFLT3-T227-His or huFLT3-M227-Fc were used) using BLI on a ForteBio Octet HTX instrument. Streptavidin-coated biosensors were loaded with biotinylated anti-V5 tag monoclonal antibody for 5 min and were then quenched and blocked with 20 μM amine-PEG2-Biotin for 5 min. scFvs were captured on biosensors from scFv clone periplasmic extracts. huCD33 (or huCLL-1, or huFLT3) proteins were then associated with the captured scFvs for 2 minutes, followed by dissociation with buffer (1×HBST [10 mM HEPES pH 7.4, 150 mM NaCl, 0.05% Tween-20], 1 g/L BSA) for 5 minutes. […] Data was fitted with 1:1 Langmuir equation and off-rate values were reported.
(§3) Analogous methods were used to assess selectivity of binding of polypeptides to CLL-1 K244 or CLL-1 Q244.

huCLL1-Q244-Avi-Tev-His = molecular target: T2, huCLL1-Q244-Avi-Tev-His; experiment: BLI
Experimental: as §2, §3
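For result in this document: Bio-layer interferometry with scFvs captured on biosensors via anti-V5 antibody, exposed 2 min to CLL-1 K244 or Q244 protein, 5 min dissociation, scored as binding, no binding or ambiguous.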

Binder	FACS geometric mean fold change over Jurkat parental [1] [fold]	FACS geometric mean fold change over Jurkat parental [2] [fold]	binding result (huCLL1-K244-Avi-Tev-His)	binding result (huCLL1-Q244-Avi-Tev-His)
B1	> 30	> 30	–	–
B2	2 to 10	2 to 10	–	–
B3	–	–	binds	no binding
B4	10 to 30	10 to 30	–	–
B5	–	–	binds	no binding
B6	–	–	binds	–
B7	2 to 10	10 to 30	–	–
B8	–	–	no binding	–
B9	–	–	binds	no binding
B10	–	–	binds	no binding
B11	10 to 30	2 to 10	–	–
B12	> 30	> 30	–	–
B13	–	–	binds	no binding
B14	2 to 10	2 to 10	–	–
